Assay results as given in the supplement of paper PMC9170038.

Tested on: MS2 coat protein
Assay: apparent KD of MS2 coat protein; designed switch direction (-1 OFF switch, 1 ON switch): 1; higher = weaker reporter binding
In short: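 On Illumina chips, designed RNA switches with common flanks were made by stalled E. coli RNA polymerase. Titrations with SNAP-549-labelled MS2 coat protein, doubling from 0.7 or 1.5 nM to 3 µM, were done with no input, with 200 uM small-molecule ligand, or with an oligonucleotide input. Apparent KD is the median per design over clusters, from curve fits of normalised cluster fluorescence.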

[1] = input ligand: microRNA oligo, concentration not stated

GUUAACUUGAGAGGAUAUGUAGAGGAUCACCCUACAGAAGGCUCUUUGGAGAGGAUAUGUAGAGGAUCACCCUACAGAAGGCUC [pwkr ssNG DX.6] (Eterna round: R96, puzzle: Same State NG 1)
apparent KD of MS2 coat protein (input ligand: FMN 200 uM): 56.5 nM
apparent KD of MS2 coat protein [1]: 33.7 nM
apparent KD of MS2 coat protein (input ligand: none): 25.9 nM

GUUACAUGAGGAUCACCCAUGUAUGUGUGGGAGUAAGUGUCUUAGGAUAUCUAGUAUUUAAUUCAAGAGAAGGAAGAUUGUUGU [JMF's solution 68] (Eterna round: R96, puzzle: Same State NG 3)
apparent KD of MS2 coat protein (input ligand: FMN 200 uM): 118 nM
apparent KD of MS2 coat protein [1]: 132 nM
apparent KD of MS2 coat protein (input ligand: none): 122 nM

GUUACAUGAGGAUCACCCAUGUAUGUGUGGGAGUAAGUGUCUUAGGAUAUCUAGUAUUUGAUUUAAGAGAAGGAAGAUUGUUGU [JMF's solution 60] (Eterna round: R96, puzzle: Same State NG 3)
apparent KD of MS2 coat protein (input ligand: FMN 200 uM): 121 nM
apparent KD of MS2 coat protein [1]: 75.4 nM
apparent KD of MS2 coat protein (input ligand: none): 110 nM

GUUACAUGAGGAUCACCCAUGUAUGUGUGGGAGUAAGUGUCUUAGGAUAUCUAGUUUUUAAUUUAAGAGAAGGAAGAUUGUUGU [JMF's solution 52] (Eterna round: R96, puzzle: Same State NG 3)
apparent KD of MS2 coat protein (input ligand: FMN 200 uM): 151 nM
apparent KD of MS2 coat protein [1]: 67.2 nM
apparent KD of MS2 coat protein (input ligand: none): 114 nM

GUUACAUGAGGAUCACCCAUGUAUGUGUGGGAGUAAGUGUCUUAGGAUAUCUAUCAUUAAAUUUAAGAGAAGGAAGAUUGUUGU [JMF's solution 91] (Eterna round: R96, puzzle: Same State NG 3)
apparent KD of MS2 coat protein (input ligand: FMN 200 uM): 105 nM
apparent KD of MS2 coat protein [1]: 84.7 nM
apparent KD of MS2 coat protein (input ligand: none): 121 nM

GUUACAUGAGGAUCACCCAUGUAUGUGUGGGAGUAAGUGUCUUAGGAUAUCUAUCAUUUAAUAUAAGAGAAGGAAGAUUGUUGU [JMF's solution 96] (Eterna round: R96, puzzle: Same State NG 3)
apparent KD of MS2 coat protein [1]: 87.3 nM

GUUACAUGAGGAUCACCCAUGUAUGUGUGGGAGUAAGUGUCUUAGGAUAUCUAUGAUAUAAUUUAAGAGAAGGAAGAUUGUUGU [JMF's solution 75] (Eterna round: R96, puzzle: Same State NG 3)
apparent KD of MS2 coat protein (input ligand: FMN 200 uM): 103 nM
apparent KD of MS2 coat protein [1]: 69.9 nM
apparent KD of MS2 coat protein (input ligand: none): 136 nM

GUUACAUGAGGAUCACCCAUGUAUGUGUGGGAGUAAGUGUCUUAGGAUAUCUAUGAUUGAAUUUAAGAGAAGGAAGAUUGUUGU [JMF's solution 77] (Eterna round: R96, puzzle: Same State NG 3)
apparent KD of MS2 coat protein (input ligand: FMN 200 uM): 103 nM
apparent KD of MS2 coat protein [1]: 83.8 nM
apparent KD of MS2 coat protein (input ligand: none): 90.6 nM

GUUACAUGAGGAUCACCCAUGUAUGUGUGGGAGUAAGUGUCUUAGGAUAUCUAUGAUUUAACUUAAGAGAAGGAAGAUUGUUGU [JMF's solution 81] (Eterna round: R96, puzzle: Same State NG 3)
apparent KD of MS2 coat protein (input ligand: FMN 200 uM): 123 nM
apparent KD of MS2 coat protein [1]: 72.9 nM
apparent KD of MS2 coat protein (input ligand: none): 98.6 nM

GUUACAUGAGGAUCACCCAUGUAUGUGUGGGAGUAAGUGUCUUAGGAUAUCUAUGAUUUAAGUUAAGAGAAGGAAGAUUGUUGU [JMF's solution 80] (Eterna round: R96, puzzle: Same State NG 3)
apparent KD of MS2 coat protein (input ligand: FMN 200 uM): 118 nM
apparent KD of MS2 coat protein [1]: 89.5 nM
apparent KD of MS2 coat protein (input ligand: none): 114 nM

GUUACAUGAGGAUCACCCAUGUAUGUGUGGGAGUAAGUGUCUUAGGAUAUCUAUGUUUUAAUUUAAGAGAAGGAAGAUUGUUGU [JMF's solution 71] (Eterna round: R96, puzzle: Same State NG 3)
apparent KD of MS2 coat protein (input ligand: FMN 200 uM): 102 nM
apparent KD of MS2 coat protein [1]: 102 nM
apparent KD of MS2 coat protein (input ligand: none): 115 nM

GUUACAUGAGGAUCACCCAUGUAUGUGUGGGAGUAAGUGUCUUAGGAUAUCUAUUAUUGAAAUUAAGAGAAGGAAGAUUGUUGU [JMF's solution 19] (Eterna round: R96, puzzle: Same State NG 3)
apparent KD of MS2 coat protein [1]: 98.6 nM

GUUACAUGAGGAUCACCCAUGUAUGUGUGGGAGUAAGUGUCUUAGGAUAUCUAUUAUUUAAUGUAAGAGAAGGAAGAUUGUUGU [JMF's solution 24] (Eterna round: R96, puzzle: Same State NG 3)
apparent KD of MS2 coat protein [1]: 106 nM

GUUACAUGAGGAUCACCCAUGUAUGUGUGGGAGUAAGUGUCUUAGGAUAUCUGUUAUUAAAUUUAAGAGAAGGAAGAUUGUUGU [JMF's solution 36] (Eterna round: R96, puzzle: Same State NG 3)
apparent KD of MS2 coat protein (input ligand: FMN 200 uM): 104 nM
apparent KD of MS2 coat protein [1]: 64.1 nM
apparent KD of MS2 coat protein (input ligand: none): 92.7 nM

GUUACAUGAGGAUCACCCAUGUGUGUGUGGGAGUGAGUGGCUUAGGAUAUCUAUGAUUUAAGUUAAGAGAAGGAAGAUUGUUGU [SS-NG3-LRO03] (Eterna round: R96, puzzle: Same State NG 3)
apparent KD of MS2 coat protein (input ligand: FMN 200 uM): 415 nM
apparent KD of MS2 coat protein [1]: 196 nM
apparent KD of MS2 coat protein (input ligand: none): 352 nM
